{
  "source": "patent US20240261333A1",
  "about": "“NOVEL TARGETS FOR ENHANCING ANTI-TUMOR IMMUNITY” (THE BROAD INSTITUTE, INC., priority 2021, published 2024)",
  "key": {"RPS3 (human)": {"target": "RPS3 (human) (UniProt P23396)", "assay": "co-IP, IgG control, lysate of cells with N-FLAG B3GNT2; mass spectrometry"}, "STAU2 (human)": {"target": "STAU2 (human) (UniProt Q9NUL3)", "sequence (Q9NUL3 whole entry)": "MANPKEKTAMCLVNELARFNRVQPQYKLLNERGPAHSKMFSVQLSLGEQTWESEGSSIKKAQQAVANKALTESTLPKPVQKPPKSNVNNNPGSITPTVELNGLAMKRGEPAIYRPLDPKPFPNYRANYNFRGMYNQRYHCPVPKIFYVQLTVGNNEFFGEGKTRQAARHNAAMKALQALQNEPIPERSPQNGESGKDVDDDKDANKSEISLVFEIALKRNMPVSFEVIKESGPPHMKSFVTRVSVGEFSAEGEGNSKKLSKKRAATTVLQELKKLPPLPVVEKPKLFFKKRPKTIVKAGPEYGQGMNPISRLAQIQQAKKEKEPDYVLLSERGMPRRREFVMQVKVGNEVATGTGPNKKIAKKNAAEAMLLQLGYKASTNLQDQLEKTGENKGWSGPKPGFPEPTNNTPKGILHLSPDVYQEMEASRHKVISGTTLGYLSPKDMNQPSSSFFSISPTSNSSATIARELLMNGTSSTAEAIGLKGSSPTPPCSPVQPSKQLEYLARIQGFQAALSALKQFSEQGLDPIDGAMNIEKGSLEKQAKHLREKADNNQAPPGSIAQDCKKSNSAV", "assay": "co-IP with anti-FLAG, mass spectrometry; lysate of cells with C-FLAG B3GNT2"}, "IPO13 (human)": {"target": "IPO13 (human) (UniProt O94829)", "assay": "co-IP with anti-FLAG, mass spectrometry; lysate of cells with C-FLAG B3GNT2"}, "MYO1C (human)": {"target": "MYO1C (human) (UniProt O00159)", "assay": "co-IP with anti-FLAG, mass spectrometry; lysate of cells with C-FLAG B3GNT2"}, "NPM1 (human)": {"target": "NPM1 (human) (UniProt P06748)", "sequence (P06748 whole entry)": "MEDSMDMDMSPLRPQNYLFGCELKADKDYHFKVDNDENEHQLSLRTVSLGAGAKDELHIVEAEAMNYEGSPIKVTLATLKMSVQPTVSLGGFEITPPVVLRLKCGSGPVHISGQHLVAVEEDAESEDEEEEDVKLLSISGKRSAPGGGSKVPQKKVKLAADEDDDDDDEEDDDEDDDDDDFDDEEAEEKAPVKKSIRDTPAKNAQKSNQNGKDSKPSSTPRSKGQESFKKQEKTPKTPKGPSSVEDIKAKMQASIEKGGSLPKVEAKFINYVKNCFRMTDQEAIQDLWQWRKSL", "assay": "co-IP with anti-FLAG, mass spectrometry; lysate of cells with C-FLAG B3GNT2"}, "HSPD1 (human)": {"target": "HSPD1 (human) (UniProt P10809)", "sequence (P10809 27-573 limits assumed)": "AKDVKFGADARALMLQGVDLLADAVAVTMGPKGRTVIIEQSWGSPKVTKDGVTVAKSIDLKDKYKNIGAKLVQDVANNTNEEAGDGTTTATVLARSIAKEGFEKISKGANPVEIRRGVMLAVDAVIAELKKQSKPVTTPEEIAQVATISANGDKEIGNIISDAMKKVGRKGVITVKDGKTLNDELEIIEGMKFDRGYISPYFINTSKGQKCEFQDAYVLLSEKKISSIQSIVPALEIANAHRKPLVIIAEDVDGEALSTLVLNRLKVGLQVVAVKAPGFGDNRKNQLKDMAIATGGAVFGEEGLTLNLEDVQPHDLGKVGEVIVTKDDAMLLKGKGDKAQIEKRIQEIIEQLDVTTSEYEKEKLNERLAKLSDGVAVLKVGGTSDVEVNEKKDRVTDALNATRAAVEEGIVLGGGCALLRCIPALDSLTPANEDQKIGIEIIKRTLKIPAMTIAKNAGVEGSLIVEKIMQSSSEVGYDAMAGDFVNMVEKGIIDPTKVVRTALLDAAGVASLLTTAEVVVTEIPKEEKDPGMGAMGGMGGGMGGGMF", "assay": "co-IP with anti-FLAG, mass spectrometry; lysate of cells with C-FLAG B3GNT2"}, "GAPDH (human)": {"target": "GAPDH (human) (UniProt P04406)", "sequence (P04406 2-335 limits assumed)": "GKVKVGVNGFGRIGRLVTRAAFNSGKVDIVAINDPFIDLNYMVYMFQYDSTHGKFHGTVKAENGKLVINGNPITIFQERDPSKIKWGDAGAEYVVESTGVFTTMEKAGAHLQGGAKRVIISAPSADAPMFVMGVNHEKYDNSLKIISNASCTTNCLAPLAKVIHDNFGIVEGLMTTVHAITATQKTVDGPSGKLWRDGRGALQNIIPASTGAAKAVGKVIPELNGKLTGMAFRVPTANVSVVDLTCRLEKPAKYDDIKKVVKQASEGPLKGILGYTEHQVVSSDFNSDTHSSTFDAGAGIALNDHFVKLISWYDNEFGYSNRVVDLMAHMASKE", "assay": "co-IP with anti-FLAG, mass spectrometry; lysate of cells with C-FLAG B3GNT2"}, "RPS27 (human)": {"target": "RPS27 (human) (UniProt P42677)", "assay": "co-IP with anti-FLAG, mass spectrometry; lysate of cells with C-FLAG B3GNT2"}, "PJA2 (human)": {"target": "PJA2 (human) (UniProt O43164)", "sequence (O43164 2-708 limits assumed)": "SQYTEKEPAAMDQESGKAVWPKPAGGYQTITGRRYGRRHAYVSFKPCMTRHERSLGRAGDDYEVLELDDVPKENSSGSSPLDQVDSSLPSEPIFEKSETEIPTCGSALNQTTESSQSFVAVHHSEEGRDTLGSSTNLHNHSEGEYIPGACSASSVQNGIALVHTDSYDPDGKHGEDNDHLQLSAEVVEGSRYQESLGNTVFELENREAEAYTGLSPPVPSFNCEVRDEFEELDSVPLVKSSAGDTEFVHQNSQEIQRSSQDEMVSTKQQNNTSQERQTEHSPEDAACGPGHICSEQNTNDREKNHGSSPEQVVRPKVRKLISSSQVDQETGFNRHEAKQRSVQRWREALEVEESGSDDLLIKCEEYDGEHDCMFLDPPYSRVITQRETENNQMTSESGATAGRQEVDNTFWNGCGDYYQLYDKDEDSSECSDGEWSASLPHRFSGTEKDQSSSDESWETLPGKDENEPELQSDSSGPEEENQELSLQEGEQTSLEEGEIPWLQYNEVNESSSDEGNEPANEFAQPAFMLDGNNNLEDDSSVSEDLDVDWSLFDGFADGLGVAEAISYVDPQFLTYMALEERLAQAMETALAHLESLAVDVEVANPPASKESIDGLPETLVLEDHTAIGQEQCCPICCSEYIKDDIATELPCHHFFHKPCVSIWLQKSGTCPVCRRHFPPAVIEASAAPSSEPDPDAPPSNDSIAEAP", "assay": "co-IP with anti-FLAG, mass spectrometry; lysate of cells with C-FLAG B3GNT2"}, "SLC25A5 (human)": {"target": "SLC25A5 (human) (UniProt P05141)", "sequence (P05141 2-298 limits assumed)": "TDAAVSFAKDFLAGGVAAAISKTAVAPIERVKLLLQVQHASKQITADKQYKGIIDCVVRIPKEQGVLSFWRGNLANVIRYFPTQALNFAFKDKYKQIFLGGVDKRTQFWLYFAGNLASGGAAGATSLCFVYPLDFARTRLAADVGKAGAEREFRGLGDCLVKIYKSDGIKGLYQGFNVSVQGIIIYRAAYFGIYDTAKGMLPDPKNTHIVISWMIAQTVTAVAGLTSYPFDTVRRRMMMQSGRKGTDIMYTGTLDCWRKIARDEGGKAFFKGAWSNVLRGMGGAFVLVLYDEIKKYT", "assay": "co-IP with anti-FLAG, mass spectrometry; lysate of cells with C-FLAG B3GNT2"}, "ILF3 (human)": {"target": "ILF3 (human) (UniProt Q12906)", "assay": "co-IP with anti-FLAG, mass spectrometry; lysate of cells with C-FLAG B3GNT2"}, "CCT2 (human)": {"target": "CCT2 (human) (UniProt P78371)", "sequence (P78371 48-535 limits assumed)": "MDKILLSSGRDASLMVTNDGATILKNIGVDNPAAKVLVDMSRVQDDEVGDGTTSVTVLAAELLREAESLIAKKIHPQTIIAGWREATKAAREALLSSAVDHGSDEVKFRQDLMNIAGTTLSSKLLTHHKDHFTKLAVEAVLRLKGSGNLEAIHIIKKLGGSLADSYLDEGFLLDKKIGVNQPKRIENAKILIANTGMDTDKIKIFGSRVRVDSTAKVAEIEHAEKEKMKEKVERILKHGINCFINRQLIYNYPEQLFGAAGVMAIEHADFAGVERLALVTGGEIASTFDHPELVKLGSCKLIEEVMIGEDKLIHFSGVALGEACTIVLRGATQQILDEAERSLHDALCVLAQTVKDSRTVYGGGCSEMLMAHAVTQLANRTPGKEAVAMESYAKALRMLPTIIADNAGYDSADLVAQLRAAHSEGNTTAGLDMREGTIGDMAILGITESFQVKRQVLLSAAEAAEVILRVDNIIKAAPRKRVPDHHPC", "assay": "co-IP with anti-FLAG, mass spectrometry; lysate of cells with C-FLAG B3GNT2"}, "HADHA (human)": {"target": "HADHA (human) (UniProt P40939)", "assay": "co-IP with anti-FLAG, mass spectrometry; lysate of cells with C-FLAG B3GNT2"}, "MSN (human)": {"target": "MSN (human) (UniProt P26038)", "assay": "co-IP with anti-FLAG, mass spectrometry; lysate of cells with C-FLAG B3GNT2"}, "UGGT1 (human)": {"target": "UGGT1 (human) (UniProt Q9NYU2)", "assay": "co-IP with anti-FLAG, mass spectrometry; lysate of cells with C-FLAG B3GNT2"}, "RPL9 (human)": {"target": "RPL9 (human) (UniProt P32969)", "assay": "co-IP with anti-FLAG, mass spectrometry; lysate of cells with C-FLAG B3GNT2"}, "RPS4X (human)": {"target": "RPS4X (human) (UniProt P62701)", "assay": "co-IP with anti-FLAG, mass spectrometry; lysate of cells with C-FLAG B3GNT2"}, "C1orf68 (human)": {"target": "C1orf68 (human) (UniProt Q5T750)", "sequence (Q5T750 whole entry)": "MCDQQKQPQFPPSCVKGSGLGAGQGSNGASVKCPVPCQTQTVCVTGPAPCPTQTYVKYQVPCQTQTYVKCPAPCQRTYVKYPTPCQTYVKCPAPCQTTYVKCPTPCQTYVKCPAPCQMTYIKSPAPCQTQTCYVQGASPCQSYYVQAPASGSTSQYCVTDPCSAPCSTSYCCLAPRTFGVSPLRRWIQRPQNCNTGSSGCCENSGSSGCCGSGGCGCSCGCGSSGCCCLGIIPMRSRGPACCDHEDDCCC", "assay": "co-IP, anti-FLAG, lysate of cells with N-FLAG B3GNT2; mass spectrometry"}, "CAT (human)": {"target": "CAT (human) (UniProt P04040)", "sequence (P04040 2-527 limits assumed)": "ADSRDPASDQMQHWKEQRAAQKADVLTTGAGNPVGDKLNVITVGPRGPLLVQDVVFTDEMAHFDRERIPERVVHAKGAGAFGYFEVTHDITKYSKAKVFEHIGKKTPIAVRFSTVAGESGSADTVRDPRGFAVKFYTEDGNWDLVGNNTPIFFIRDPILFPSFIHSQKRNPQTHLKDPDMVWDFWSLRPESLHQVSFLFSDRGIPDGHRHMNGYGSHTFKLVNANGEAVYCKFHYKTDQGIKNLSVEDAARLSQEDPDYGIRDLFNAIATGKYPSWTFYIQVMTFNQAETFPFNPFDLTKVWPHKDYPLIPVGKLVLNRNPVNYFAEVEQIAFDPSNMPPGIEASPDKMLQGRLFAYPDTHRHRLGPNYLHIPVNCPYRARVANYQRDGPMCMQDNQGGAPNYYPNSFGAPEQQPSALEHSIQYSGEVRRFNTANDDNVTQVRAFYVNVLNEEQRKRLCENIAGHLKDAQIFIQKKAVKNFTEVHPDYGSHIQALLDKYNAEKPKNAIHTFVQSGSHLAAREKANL", "assay": "co-IP, anti-FLAG, lysate of cells with N-FLAG B3GNT2; mass spectrometry"}, "GGCT (human)": {"target": "GGCT (human) (UniProt O75223)", "sequence (O75223 whole entry)": "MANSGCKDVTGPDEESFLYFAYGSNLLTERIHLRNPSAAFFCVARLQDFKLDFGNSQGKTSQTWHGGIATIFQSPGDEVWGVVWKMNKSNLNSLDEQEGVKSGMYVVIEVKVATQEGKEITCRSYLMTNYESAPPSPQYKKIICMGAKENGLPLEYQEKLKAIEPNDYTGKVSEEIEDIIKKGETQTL", "assay": "co-IP, anti-FLAG, lysate of cells with N-FLAG B3GNT2; mass spectrometry"}, "HSPA8 (human)": {"target": "HSPA8 (human) (UniProt P11142)", "sequence (P11142 2-646 limits assumed)": "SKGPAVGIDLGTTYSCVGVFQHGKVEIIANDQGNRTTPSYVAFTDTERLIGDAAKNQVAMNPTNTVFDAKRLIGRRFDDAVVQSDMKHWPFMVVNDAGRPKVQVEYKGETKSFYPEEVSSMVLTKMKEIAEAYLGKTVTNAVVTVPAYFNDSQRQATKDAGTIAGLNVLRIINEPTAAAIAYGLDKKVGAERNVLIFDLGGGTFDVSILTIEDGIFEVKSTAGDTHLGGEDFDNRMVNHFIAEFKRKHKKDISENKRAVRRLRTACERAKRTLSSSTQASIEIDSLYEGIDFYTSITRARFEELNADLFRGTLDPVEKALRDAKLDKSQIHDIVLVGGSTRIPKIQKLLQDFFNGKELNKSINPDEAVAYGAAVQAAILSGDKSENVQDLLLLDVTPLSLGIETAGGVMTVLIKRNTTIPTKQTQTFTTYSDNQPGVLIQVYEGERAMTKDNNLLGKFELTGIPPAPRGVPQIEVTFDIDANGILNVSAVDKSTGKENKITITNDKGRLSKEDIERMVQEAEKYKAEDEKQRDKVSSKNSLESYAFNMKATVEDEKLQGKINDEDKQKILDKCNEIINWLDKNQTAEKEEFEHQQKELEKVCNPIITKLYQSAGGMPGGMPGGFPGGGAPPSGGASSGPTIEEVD", "assay": "co-IP, anti-FLAG, lysate of cells with N-FLAG B3GNT2; mass spectrometry"}, "RPL13 (human)": {"target": "RPL13 (human) (UniProt P26373)", "assay": "co-IP, anti-FLAG, lysate of cells with N-FLAG B3GNT2; mass spectrometry"}, "HUWE1 (human)": {"target": "HUWE1 (human) (UniProt Q7Z6Z7)", "assay": "co-IP, anti-FLAG, lysate of cells with N-FLAG B3GNT2; mass spectrometry"}, "SAMM50 (human)": {"target": "SAMM50 (human) (UniProt Q9Y512)", "assay": "co-IP, anti-FLAG, lysate of cells with N-FLAG B3GNT2; mass spectrometry"}, "MOV10 (human)": {"target": "T1, MOV10 (human) (UniProt Q9HCE1)", "T1 sequence (looked up)": "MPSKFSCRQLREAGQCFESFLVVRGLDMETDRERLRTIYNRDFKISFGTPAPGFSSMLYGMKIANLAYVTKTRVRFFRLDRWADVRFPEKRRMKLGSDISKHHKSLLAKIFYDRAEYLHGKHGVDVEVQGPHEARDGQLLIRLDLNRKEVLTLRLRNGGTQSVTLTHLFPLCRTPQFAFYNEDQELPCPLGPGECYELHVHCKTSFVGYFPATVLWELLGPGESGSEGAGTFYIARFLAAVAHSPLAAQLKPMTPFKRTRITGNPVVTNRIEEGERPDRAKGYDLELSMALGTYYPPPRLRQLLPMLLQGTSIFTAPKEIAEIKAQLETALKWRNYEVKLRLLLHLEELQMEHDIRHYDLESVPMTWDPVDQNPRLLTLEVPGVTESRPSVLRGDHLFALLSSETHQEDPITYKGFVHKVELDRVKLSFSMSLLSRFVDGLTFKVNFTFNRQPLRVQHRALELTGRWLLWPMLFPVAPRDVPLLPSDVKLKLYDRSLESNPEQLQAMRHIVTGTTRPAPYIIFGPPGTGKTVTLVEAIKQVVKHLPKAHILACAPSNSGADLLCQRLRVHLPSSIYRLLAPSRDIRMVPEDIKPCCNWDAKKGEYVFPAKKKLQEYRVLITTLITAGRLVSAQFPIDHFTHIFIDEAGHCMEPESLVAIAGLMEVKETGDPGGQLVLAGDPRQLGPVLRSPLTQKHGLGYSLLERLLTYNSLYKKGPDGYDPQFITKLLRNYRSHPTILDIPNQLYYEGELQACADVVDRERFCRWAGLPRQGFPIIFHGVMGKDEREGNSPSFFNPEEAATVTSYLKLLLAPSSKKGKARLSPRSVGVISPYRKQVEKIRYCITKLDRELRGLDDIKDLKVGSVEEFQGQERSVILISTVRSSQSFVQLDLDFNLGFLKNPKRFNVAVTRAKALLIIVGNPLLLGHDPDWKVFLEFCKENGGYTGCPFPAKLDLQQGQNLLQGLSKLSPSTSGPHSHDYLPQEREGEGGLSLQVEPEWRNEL", "assay": "co-IP, anti-FLAG, lysate of cells with N-FLAG B3GNT2; mass spectrometry"}, "RPL18 (human)": {"target": "RPL18 (human) (UniProt Q07020)", "assay": "co-IP, anti-FLAG, lysate of cells with N-FLAG B3GNT2; mass spectrometry"}},
  "data": [
    {"substance": "IgG control (Millipore Sigma 12-371) (antibody)", "values": [
      {"measurement": "co-IP mass spectrometry count", "setting": "RPS3 (human)", "value": 13}
    ]},
    {"substance": "C-terminal FLAG tagged B3GNT2 (from UniProt Q9NY97 1-397) (enzyme)", "values": [
      {"measurement": "co-IP mass spectrometry count", "setting": "STAU2 (human)", "value": 2},
      {"measurement": "co-IP mass spectrometry count", "setting": "IPO13 (human)", "value": 2},
      {"measurement": "co-IP mass spectrometry count", "setting": "MYO1C (human)", "value": 3},
      {"measurement": "co-IP mass spectrometry count", "setting": "NPM1 (human)", "value": 8},
      {"measurement": "co-IP mass spectrometry count", "setting": "HSPD1 (human)", "value": 6},
      {"measurement": "co-IP mass spectrometry count", "setting": "GAPDH (human)", "value": 16},
      {"measurement": "co-IP mass spectrometry count", "setting": "RPS27 (human)", "value": 6},
      {"measurement": "co-IP mass spectrometry count", "setting": "PJA2 (human)", "value": 2},
      {"measurement": "co-IP mass spectrometry count", "setting": "SLC25A5 (human)", "value": 30},
      {"measurement": "co-IP mass spectrometry count", "setting": "ILF3 (human)", "value": 5},
      {"measurement": "co-IP mass spectrometry count", "setting": "CCT2 (human)", "value": 2},
      {"measurement": "co-IP mass spectrometry count", "setting": "HADHA (human)", "value": 2},
      {"measurement": "co-IP mass spectrometry count", "setting": "MSN (human)", "value": 4},
      {"measurement": "co-IP mass spectrometry count", "setting": "UGGT1 (human)", "value": 5},
      {"measurement": "co-IP mass spectrometry count", "setting": "RPL9 (human)", "value": 7},
      {"measurement": "co-IP mass spectrometry count", "setting": "RPS4X (human)", "value": 23}
    ]},
    {"substance": "N-terminal FLAG tagged B3GNT2 (from UniProt Q9NY97 1-397) (enzyme)", "values": [
      {"measurement": "co-IP mass spectrometry count", "setting": "C1orf68 (human)", "value": 13},
      {"measurement": "co-IP mass spectrometry count", "setting": "CAT (human)", "value": 6},
      {"measurement": "co-IP mass spectrometry count", "setting": "GGCT (human)", "value": 3},
      {"measurement": "co-IP mass spectrometry count", "setting": "HSPA8 (human)", "value": 41},
      {"measurement": "co-IP mass spectrometry count", "setting": "RPL13 (human)", "value": 15},
      {"measurement": "co-IP mass spectrometry count", "setting": "HUWE1 (human)", "value": 3},
      {"measurement": "co-IP mass spectrometry count", "setting": "SAMM50 (human)", "value": 3},
      {"measurement": "co-IP mass spectrometry count", "setting": "MOV10 (human)", "value": 4},
      {"measurement": "co-IP mass spectrometry count", "setting": "RPL18 (human)", "value": 11}
    ]}
  ]
}
